Source: PMC5673894

Target: recombinant histone H3K4me3, P68431
Assay: co-immunoprecipitation with anti-H3K4me3 antibodies, quantified anti-GFP immunoblot
Conditions: chain shown with the change, 0.3-M NaCl extracts of XP-C fibroblasts, recombinant H3K4me3 2 µg, n = 3, read off a plot

percent of parent [% WT]	Binder	also measured
72	wild-type XPC-GFP fusion, Q01831 W690S (protein) MARKRAAGGEPRGRELRSQKSKAKSKARREEEEEDAFEDEKPPKKSLLSKVSQGKRKRGCSHPGGSADGPAKKKVAKVTVKSENLKVIKDEALSDGDDLRDFPSDLKKAHHLKRGATMNEDSNEEEEESENDWEEVEELSEPVLGDVRESTAFSRSLLPVKPVEIEIETPEQAKTRERSEKIKLEFETYLRRAMKRFNKGVHEDTHKVHLLCLLANGFYRNNICSQPDLHAIGLSIIPARFTRVLPRDVDTYYLSNLVKWFIGTFTVNAELSASEQDNLQTTLERRFAIYSARDDEELVHIFLLILRALQLLTRLVLSLQPIPLKSATAKGKKPSKERLTADPGGSSETSSQVLENHTKPKTSKGTKQEETFAKGTCRPSAKGKRNKGGRKKRSKPSSSEEDEGPGDKQEKATQRRPHGRERRVASRVSYKEESGSDEAGSGSDFELSSGEASDPSDEDSEPGPPKQRKAPAPQRTKAGSKSASRTHRGSHRKDPSLPAASSSSSSSKRGKKMCSDGEKAEKRSIAGIDQWLEVFCEQEEKWVCVDCVHGVVGQPLTCYKYATKPMTYVVGIDSDGWVRDVTQRYDPVWMTVTRKCRVDAEWWAETLRPYQSPFMDREKKEDLEFQAKHMDQPLPTAIGLYKNHPLYALKRHLLKYEAIYPETAAILGYCRGEAVYSRDCVHTLHSRDTSLKKARVVRLGEVPYKMVKGFSNRARKARLAEPQLREENDLGLFGYWQTEEYQPPVAVDGKVPRNEFGNVYLFLPSMMPIGCVQLNLPNLHRVARKLDIDCVQAITGFDFHGGYSHPVTDGYIVCEEFKDVLLTAWENEQAVIERKEKEKKEKRALGNWKLLAKGLLIRERLKRRYGPKSEAAAPHTDAGGGLSSDEEEGTSSQAEAARILAASWPQNREDEEKQKLKGGPKKTKREKKAAASHLFPFEQL	–
85	wild-type XPC-GFP fusion, Q01831 E755K (protein) MARKRAAGGEPRGRELRSQKSKAKSKARREEEEEDAFEDEKPPKKSLLSKVSQGKRKRGCSHPGGSADGPAKKKVAKVTVKSENLKVIKDEALSDGDDLRDFPSDLKKAHHLKRGATMNEDSNEEEEESENDWEEVEELSEPVLGDVRESTAFSRSLLPVKPVEIEIETPEQAKTRERSEKIKLEFETYLRRAMKRFNKGVHEDTHKVHLLCLLANGFYRNNICSQPDLHAIGLSIIPARFTRVLPRDVDTYYLSNLVKWFIGTFTVNAELSASEQDNLQTTLERRFAIYSARDDEELVHIFLLILRALQLLTRLVLSLQPIPLKSATAKGKKPSKERLTADPGGSSETSSQVLENHTKPKTSKGTKQEETFAKGTCRPSAKGKRNKGGRKKRSKPSSSEEDEGPGDKQEKATQRRPHGRERRVASRVSYKEESGSDEAGSGSDFELSSGEASDPSDEDSEPGPPKQRKAPAPQRTKAGSKSASRTHRGSHRKDPSLPAASSSSSSSKRGKKMCSDGEKAEKRSIAGIDQWLEVFCEQEEKWVCVDCVHGVVGQPLTCYKYATKPMTYVVGIDSDGWVRDVTQRYDPVWMTVTRKCRVDAEWWAETLRPYQSPFMDREKKEDLEFQAKHMDQPLPTAIGLYKNHPLYALKRHLLKYEAIYPETAAILGYCRGEAVYSRDCVHTLHSRDTWLKKARVVRLGEVPYKMVKGFSNRARKARLAEPQLREENDLGLFGYWQTEEYQPPVAVDGKVPRNKFGNVYLFLPSMMPIGCVQLNLPNLHRVARKLDIDCVQAITGFDFHGGYSHPVTDGYIVCEEFKDVLLTAWENEQAVIERKEKEKKEKRALGNWKLLAKGLLIRERLKRRYGPKSEAAAPHTDAGGGLSSDEEEGTSSQAEAARILAASWPQNREDEEKQKLKGGPKKTKREKKAAASHLFPFEQL	–

More lines, now with the values behind:

Binder	percent of parent [% WT]	also measured
wild-type XPC-GFP fusion, Q01831 D748K (protein) MARKRAAGGEPRGRELRSQKSKAKSKARREEEEEDAFEDEKPPKKSLLSKVSQGKRKRGCSHPGGSADGPAKKKVAKVTVKSENLKVIKDEALSDGDDLRDFPSDLKKAHHLKRGATMNEDSNEEEEESENDWEEVEELSEPVLGDVRESTAFSRSLLPVKPVEIEIETPEQAKTRERSEKIKLEFETYLRRAMKRFNKGVHEDTHKVHLLCLLANGFYRNNICSQPDLHAIGLSIIPARFTRVLPRDVDTYYLSNLVKWFIGTFTVNAELSASEQDNLQTTLERRFAIYSARDDEELVHIFLLILRALQLLTRLVLSLQPIPLKSATAKGKKPSKERLTADPGGSSETSSQVLENHTKPKTSKGTKQEETFAKGTCRPSAKGKRNKGGRKKRSKPSSSEEDEGPGDKQEKATQRRPHGRERRVASRVSYKEESGSDEAGSGSDFELSSGEASDPSDEDSEPGPPKQRKAPAPQRTKAGSKSASRTHRGSHRKDPSLPAASSSSSSSKRGKKMCSDGEKAEKRSIAGIDQWLEVFCEQEEKWVCVDCVHGVVGQPLTCYKYATKPMTYVVGIDSDGWVRDVTQRYDPVWMTVTRKCRVDAEWWAETLRPYQSPFMDREKKEDLEFQAKHMDQPLPTAIGLYKNHPLYALKRHLLKYEAIYPETAAILGYCRGEAVYSRDCVHTLHSRDTWLKKARVVRLGEVPYKMVKGFSNRARKARLAEPQLREENDLGLFGYWQTEEYQPPVAVKGKVPRNEFGNVYLFLPSMMPIGCVQLNLPNLHRVARKLDIDCVQAITGFDFHGGYSHPVTDGYIVCEEFKDVLLTAWENEQAVIERKEKEKKEKRALGNWKLLAKGLLIRERLKRRYGPKSEAAAPHTDAGGGLSSDEEEGTSSQAEAARILAASWPQNREDEEKQKLKGGPKKTKREKKAAASHLFPFEQL	–	percent of parent (P = 0.0087 vs WT): 55 % WT
wild-type XPC-GFP fusion, Q01831 D748K; E755K (protein) MARKRAAGGEPRGRELRSQKSKAKSKARREEEEEDAFEDEKPPKKSLLSKVSQGKRKRGCSHPGGSADGPAKKKVAKVTVKSENLKVIKDEALSDGDDLRDFPSDLKKAHHLKRGATMNEDSNEEEEESENDWEEVEELSEPVLGDVRESTAFSRSLLPVKPVEIEIETPEQAKTRERSEKIKLEFETYLRRAMKRFNKGVHEDTHKVHLLCLLANGFYRNNICSQPDLHAIGLSIIPARFTRVLPRDVDTYYLSNLVKWFIGTFTVNAELSASEQDNLQTTLERRFAIYSARDDEELVHIFLLILRALQLLTRLVLSLQPIPLKSATAKGKKPSKERLTADPGGSSETSSQVLENHTKPKTSKGTKQEETFAKGTCRPSAKGKRNKGGRKKRSKPSSSEEDEGPGDKQEKATQRRPHGRERRVASRVSYKEESGSDEAGSGSDFELSSGEASDPSDEDSEPGPPKQRKAPAPQRTKAGSKSASRTHRGSHRKDPSLPAASSSSSSSKRGKKMCSDGEKAEKRSIAGIDQWLEVFCEQEEKWVCVDCVHGVVGQPLTCYKYATKPMTYVVGIDSDGWVRDVTQRYDPVWMTVTRKCRVDAEWWAETLRPYQSPFMDREKKEDLEFQAKHMDQPLPTAIGLYKNHPLYALKRHLLKYEAIYPETAAILGYCRGEAVYSRDCVHTLHSRDTWLKKARVVRLGEVPYKMVKGFSNRARKARLAEPQLREENDLGLFGYWQTEEYQPPVAVKGKVPRNKFGNVYLFLPSMMPIGCVQLNLPNLHRVARKLDIDCVQAITGFDFHGGYSHPVTDGYIVCEEFKDVLLTAWENEQAVIERKEKEKKEKRALGNWKLLAKGLLIRERLKRRYGPKSEAAAPHTDAGGGLSSDEEEGTSSQAEAARILAASWPQNREDEEKQKLKGGPKKTKREKKAAASHLFPFEQL	–	percent of parent (P = 0.0147 vs WT): 46 % WT
